According to patent publication US11311622B2, “Development of masked therapeutic antibodies to limit off-target effects” (CITY OF HOPE, priority 2010, dated 2022):

Target: T1, MMP-9 (Homo sapiens, UniProt P14780)
T1 construct: purchased Calbiochem
Assay: MMP-9 digestion of masked and cross-masked scFvs (SDS-PAGE)
Format: biochemical
Conditions: into the mask and scFv proteins

T1 sequence (P14780 107-707 limits assumed, species assumed): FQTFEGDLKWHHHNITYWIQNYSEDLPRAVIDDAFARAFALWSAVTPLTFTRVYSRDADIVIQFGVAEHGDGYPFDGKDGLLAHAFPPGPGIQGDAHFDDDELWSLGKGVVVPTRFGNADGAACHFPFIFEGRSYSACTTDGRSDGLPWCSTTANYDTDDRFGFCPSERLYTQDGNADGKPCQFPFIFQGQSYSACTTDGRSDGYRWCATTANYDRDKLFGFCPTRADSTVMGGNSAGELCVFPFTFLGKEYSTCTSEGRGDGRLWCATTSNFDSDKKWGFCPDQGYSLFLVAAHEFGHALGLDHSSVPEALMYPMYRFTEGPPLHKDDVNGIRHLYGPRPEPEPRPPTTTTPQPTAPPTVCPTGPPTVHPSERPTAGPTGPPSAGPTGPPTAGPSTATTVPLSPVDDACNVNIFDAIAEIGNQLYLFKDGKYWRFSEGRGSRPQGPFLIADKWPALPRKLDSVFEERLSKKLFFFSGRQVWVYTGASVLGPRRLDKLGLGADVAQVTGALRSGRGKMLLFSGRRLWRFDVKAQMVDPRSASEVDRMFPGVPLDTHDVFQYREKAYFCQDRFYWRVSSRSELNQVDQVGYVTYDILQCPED

B1: Masked 425: sEGFRdIII (S460P/G461N) mask, MMP-9 cleavable linker, scFv 425, FLAG and H6 tags; SEQ ID NO:6 (protein)
chain: MRPSGTAGAALLALLAALCPASRARKVCNGIGIGEFKDSLSINATNIKHFKNCTSISGDLHILPVAFRGDSFTHTPPLDPQELDILKTVKEITGFLLIAAWPENRTDLHAFENLEIIRGRTKMEGQFSLAVVSLNITSLGLRSLKEISDGDVIISGNKNLCYANTINWKKLFGTSGQKTKIISNRGENSCKATGQVCHALCSPEGCWGPEPKDCVSCRNVSRGRECCSRGGGSGGGSGGGSVPLSLYSGSTSGSGKSSEGSGSGAQGELVMTQSPAIMSASPGEKVTMTCSASSSVTYMYWYQQKPGSSPRLLIYDTSNLASGVPVRFSGSGSGTSYSLTISRMEAEDAATYYCQQWSSHIFTFGSGTKLEIKGGGGSGGGGSGGGGSQVQLVESGAELVKPGASVKLSCKASGYTFTSHWMHWVKQRAGQGLEWIGEFNPSNGRTNYNEKFKSKATLTVDKSSSTAYMQLSSLTSEDSAVYYCASRDYDYDGRYFDYWGQGTTLTVSDYKDDDDKTGHHHHHH
Question: How did the “cleavage by recombinant active MMP-9” value turn out when B1 was run?
Answer: completely cleaved
